The text below walks through data of patent US20150073033A1 (University of Texas, published 2015).

Experiment [1] deals with T1, purified recombinant GST-Bub1 (UniProt O43683 1-1085, limits assumed).
T1 construct: Bacterially purified; not shown: GST
In words: GST pull-down, purified recombinant proteins. How it is done: Nuclei were stained with DAPI (blue). […] A GST pull-down assay was performed.

Another experiment concerns the target endogenous Bub1 (human, UniProt O43683 1-1085). In words: co-IP, HeLa cells.
Experiment [2] addresses T2, endogenous IKKβ (U87/EGFR or U251 cells) (human, UniProt O14920 1-756).
T2 sequence (looked up): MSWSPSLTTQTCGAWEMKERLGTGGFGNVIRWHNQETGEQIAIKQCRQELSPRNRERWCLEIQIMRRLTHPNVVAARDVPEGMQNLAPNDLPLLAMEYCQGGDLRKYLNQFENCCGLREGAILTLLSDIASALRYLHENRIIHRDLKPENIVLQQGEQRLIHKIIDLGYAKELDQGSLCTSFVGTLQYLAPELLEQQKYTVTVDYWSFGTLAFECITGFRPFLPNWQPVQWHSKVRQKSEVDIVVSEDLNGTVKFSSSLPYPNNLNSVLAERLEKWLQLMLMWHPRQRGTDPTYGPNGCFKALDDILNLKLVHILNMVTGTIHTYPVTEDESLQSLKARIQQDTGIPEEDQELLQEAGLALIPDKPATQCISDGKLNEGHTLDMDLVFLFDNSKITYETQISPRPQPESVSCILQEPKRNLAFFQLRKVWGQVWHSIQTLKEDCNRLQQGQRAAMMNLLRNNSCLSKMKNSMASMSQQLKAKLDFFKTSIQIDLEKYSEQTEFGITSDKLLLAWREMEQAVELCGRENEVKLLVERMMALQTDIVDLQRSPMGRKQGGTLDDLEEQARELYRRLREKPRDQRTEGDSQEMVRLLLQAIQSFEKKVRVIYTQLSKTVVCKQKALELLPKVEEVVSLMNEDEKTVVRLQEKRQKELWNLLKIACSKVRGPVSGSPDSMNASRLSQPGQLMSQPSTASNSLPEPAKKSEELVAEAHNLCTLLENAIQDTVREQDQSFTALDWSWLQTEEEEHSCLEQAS
In words: IP of PKCζ, anti-IKKβ immunoblot, EGF-treated cells. A general note: In western blotting, separated proteins are transferred to a membrane and probed.

endogenous Bub1, sequence (O43683 whole entry): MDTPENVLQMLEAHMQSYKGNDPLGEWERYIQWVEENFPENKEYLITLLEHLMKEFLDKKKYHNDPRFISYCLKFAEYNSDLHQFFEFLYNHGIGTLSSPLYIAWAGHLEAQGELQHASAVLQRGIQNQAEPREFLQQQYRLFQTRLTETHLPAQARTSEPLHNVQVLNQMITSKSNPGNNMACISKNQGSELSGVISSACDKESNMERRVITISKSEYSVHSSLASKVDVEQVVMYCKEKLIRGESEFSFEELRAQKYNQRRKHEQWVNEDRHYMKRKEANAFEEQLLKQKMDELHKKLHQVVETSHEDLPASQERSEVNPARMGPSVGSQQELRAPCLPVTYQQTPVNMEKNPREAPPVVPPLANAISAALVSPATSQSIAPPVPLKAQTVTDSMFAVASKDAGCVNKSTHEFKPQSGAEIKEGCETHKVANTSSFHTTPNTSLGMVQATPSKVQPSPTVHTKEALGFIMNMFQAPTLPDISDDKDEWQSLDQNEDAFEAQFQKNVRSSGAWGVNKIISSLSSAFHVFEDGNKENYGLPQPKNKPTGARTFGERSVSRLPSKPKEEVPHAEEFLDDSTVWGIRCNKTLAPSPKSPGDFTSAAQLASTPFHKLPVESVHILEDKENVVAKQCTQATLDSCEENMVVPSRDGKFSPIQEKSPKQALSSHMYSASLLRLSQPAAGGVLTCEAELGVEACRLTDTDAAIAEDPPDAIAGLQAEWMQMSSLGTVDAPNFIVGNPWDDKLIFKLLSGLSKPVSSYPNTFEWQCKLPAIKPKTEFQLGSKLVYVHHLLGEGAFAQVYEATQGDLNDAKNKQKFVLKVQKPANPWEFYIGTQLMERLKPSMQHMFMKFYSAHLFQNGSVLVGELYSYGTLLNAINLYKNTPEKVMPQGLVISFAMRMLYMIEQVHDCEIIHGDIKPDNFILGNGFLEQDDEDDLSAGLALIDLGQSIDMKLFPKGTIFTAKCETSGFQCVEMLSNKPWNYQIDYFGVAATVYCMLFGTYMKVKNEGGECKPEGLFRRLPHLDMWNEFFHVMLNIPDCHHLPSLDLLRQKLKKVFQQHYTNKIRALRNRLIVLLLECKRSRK
T1 sequence (O43683 whole entry): as above

B1: purified recombinant His-PKM2 (wild type) (enzyme)
chain: not shown
notes: Expressed in bacteria and purified; unphosphorylated; also called WT PKM2; WT His-PKM2
Take B1: the binding result in experiment [1] is reported as “no binding”.

B2: endogenous PKM1 (enzyme)
chain: not shown
notes: Looked for in Bub3-Bub1 immunoprecipitates
Consider B2, for which the binding result with endogenous Bub1 is reported as “no binding”.

B3: endogenous PKCζ (enzyme, human, UniProt Q05513 1-592, looked up)
chain: MPSRTGPKMEGSGGRVRLKAHYGGDIFITSVDAATTFEELCEEVRDMCRLHQQHPLTLKWVDSEGDPCTVSSQMELEEAFRLARQCRDEGLIIHVFPSTPEQPGLPCPGEDKSIYRRGARRWRKLYRANGHLFQAKRFNRRAYCGQCSERIWGLARQGYRCINCKLLVHKRCHGLVPLTCRKHMDSVMPSQEPPVDDKNEDADLPSEETDGIAYISSSRKHDSIKDDSEDLKPVIDGMDGIKISQGLGLQDFDLIRVIGRGSYAKVLLVRLKKNDQIYAMKVVKKELVHDDEDIDWVQTEKHVFEQASSNPFLVGLHSCFQTTSRLFLVIEYVNGGDLMFHMQRQRKLPEEHARFYAAEICIALNFLHERGIIYRDLKLDNVLLDADGHIKLTDYGMCKEGLGPGDTTSTFCGTPNYIAPEILRGEEYGFSVDWWALGVLMFEMMAGRSPFDIITDNPDMNTEDYLFQVILEKPIRIPRFLSVKASHVLKGFLNKDPKERLGCRPQTGFSDIKSHAFFRSIDWDLLEKKQALPPFQPQITDDYGLDNFDTQFTSEPVQLTPDDEDAIKRIDQSEFEGFEYINPLLLSTEESV
As for B3, the binding result in experiment [2] is recorded as “no binding”.
